The values that follow come from patent US20120045785A1.

In one assay the target is eukaryotic microtubules. Briefly: cell-based or functional assay.
The target of assay [1] is HtubA/B dimer (hybrid bacterial-bovine tubulin heterodimer) (Prosthecobacter dejongeii). Kind of assay: cell-based or functional assay.
Chain of HtubA/B dimer (hybrid bacterial-bovine tubulin heterodimer) (Prosthecobacter dejongeii) (chain, as listed by the source, chain 1 of 2): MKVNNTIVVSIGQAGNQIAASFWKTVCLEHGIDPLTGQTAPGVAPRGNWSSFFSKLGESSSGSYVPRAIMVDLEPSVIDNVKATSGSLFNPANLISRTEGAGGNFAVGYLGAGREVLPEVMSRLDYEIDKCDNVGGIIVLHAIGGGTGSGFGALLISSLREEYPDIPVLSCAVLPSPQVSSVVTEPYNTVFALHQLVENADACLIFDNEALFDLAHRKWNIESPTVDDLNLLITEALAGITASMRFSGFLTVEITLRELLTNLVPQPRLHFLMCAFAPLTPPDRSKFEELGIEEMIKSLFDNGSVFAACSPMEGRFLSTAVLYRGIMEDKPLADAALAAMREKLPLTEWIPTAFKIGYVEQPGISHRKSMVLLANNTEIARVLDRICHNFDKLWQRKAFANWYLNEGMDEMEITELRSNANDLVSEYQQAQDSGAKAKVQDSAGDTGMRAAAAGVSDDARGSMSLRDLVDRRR
Chain of HtubA/B dimer (hybrid bacterial-bovine tubulin heterodimer) (Prosthecobacter dejongeii) (chain, as listed by the source, chain 2 of 2): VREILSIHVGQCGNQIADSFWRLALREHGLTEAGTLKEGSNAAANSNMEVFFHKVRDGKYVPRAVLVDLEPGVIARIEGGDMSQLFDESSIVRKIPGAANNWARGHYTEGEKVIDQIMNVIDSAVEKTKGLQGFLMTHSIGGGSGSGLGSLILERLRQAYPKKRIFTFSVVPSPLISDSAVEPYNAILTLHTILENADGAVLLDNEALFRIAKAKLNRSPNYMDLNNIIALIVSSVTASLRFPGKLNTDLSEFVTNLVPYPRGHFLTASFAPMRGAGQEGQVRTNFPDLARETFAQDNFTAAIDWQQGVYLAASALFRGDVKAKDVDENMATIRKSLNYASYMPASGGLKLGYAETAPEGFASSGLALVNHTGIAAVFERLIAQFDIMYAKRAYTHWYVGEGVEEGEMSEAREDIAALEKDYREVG

Turning to Eg5 (a kinesin-5) motor domain (enzyme), the rate of ATP binding (MANT-ATP, stopped-flow) is 25 to 30 s⁻¹ with eukaryotic microtubules and 265 s⁻¹ in assay [1].
